Test [1] deals with RSV-F protein of RSV A Long virus (as carried by the live virus in the neutralisation assay) (human respiratory syncytial virus, strain A Long) (UniProt P12568). Put plainly: cell-based or functional assay.
For test [2], the target named is RSV-F protein of RSV A2 virus (as carried by the live virus in the neutralisation assay) (human respiratory syncytial virus, strain A2) (UniProt P03420). As to the kind of experiment: cell-based or functional assay.
In test [3] the target is RSV-F protein of RSV B9320 virus (as carried by the live virus in the neutralisation assay) (human respiratory syncytial virus, strain B9320). As to the kind of experiment: cell-based or functional assay.
For test [4], the target named is RSV-F protein of RSV A Long virus (as carried by the live virus in the neutralisation assay) (human respiratory syncytial virus, strain A Long) (UniProt P12568). Put plainly: cell-based or functional assay. The source holds these as a separate data set.
Test [5] has as its target RSV-F protein of RSV A2 virus (as carried by the live virus in the neutralisation assay) (human respiratory syncytial virus, strain A2) (UniProt P03420). As to the kind of experiment: cell-based or functional assay. This is another data set of the same source.
Test [6] concerns the target RSV-F protein of RSV B9320 virus (as carried by the live virus in the neutralisation assay) (human respiratory syncytial virus, strain B9320). As to the kind of experiment: cell-based or functional assay. This is another data set of the same source.
Test [7] addresses recombinant RSV-F protein (RSV A2 strain fusion (F) protein with added His tag) (human respiratory syncytial virus, A2 strain) (UniProt P03420). As to the kind of experiment: SPR (Biacore), antibody captured, RSV-F as analyte.
For test [8] the target is unchanged. Put plainly: SPR (Biacore), antibody captured, RSV-F as analyte; column head prints nM, Kd/Ka gives M.

Where two headings read alike, the source gives them in different places.

Sequence of RSV-F protein of RSV A2 virus (as carried by the live virus in the neutralisation assay) (human respiratory syncytial virus, strain A2) (P03420 26-574): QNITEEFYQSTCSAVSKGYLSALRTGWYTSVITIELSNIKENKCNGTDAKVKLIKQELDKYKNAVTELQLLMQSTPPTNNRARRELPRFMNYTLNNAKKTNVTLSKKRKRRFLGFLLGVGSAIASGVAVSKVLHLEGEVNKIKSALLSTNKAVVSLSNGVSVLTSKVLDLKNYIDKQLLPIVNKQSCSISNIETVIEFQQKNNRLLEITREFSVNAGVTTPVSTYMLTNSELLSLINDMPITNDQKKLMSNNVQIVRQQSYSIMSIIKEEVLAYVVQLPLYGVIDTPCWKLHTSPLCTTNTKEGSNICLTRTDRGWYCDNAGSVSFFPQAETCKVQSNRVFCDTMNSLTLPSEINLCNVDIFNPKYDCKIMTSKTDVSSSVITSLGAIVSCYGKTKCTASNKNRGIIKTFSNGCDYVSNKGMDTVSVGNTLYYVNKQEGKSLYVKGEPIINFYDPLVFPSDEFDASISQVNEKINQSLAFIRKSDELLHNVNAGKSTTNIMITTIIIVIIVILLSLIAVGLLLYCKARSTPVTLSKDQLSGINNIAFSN
Sequence of recombinant RSV-F protein (RSV A2 strain fusion (F) protein with added His tag) (human respiratory syncytial virus, A2 strain) (P03420 26-109, chain 1 of 2): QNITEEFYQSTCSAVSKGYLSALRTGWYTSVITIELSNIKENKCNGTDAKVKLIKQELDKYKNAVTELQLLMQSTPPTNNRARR
Sequence of recombinant RSV-F protein (RSV A2 strain fusion (F) protein with added His tag) (human respiratory syncytial virus, A2 strain) (P03420 137-524, chain 2 of 2): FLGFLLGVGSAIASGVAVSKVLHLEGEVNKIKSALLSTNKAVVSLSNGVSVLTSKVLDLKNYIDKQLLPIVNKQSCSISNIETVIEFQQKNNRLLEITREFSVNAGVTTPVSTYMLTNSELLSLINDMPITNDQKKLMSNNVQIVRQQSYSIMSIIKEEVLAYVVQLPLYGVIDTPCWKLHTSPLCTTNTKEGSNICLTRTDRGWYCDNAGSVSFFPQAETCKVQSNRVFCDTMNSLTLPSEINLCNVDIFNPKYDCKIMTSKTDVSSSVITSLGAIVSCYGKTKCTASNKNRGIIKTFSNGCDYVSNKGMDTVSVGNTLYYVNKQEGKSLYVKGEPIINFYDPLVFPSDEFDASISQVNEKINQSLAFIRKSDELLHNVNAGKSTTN

On to Palivizumab (antibody), for which the Absolute IC50, neutralizing RSV A Long (HEp-2 cells, indirect ELISA) in test [1] was found to be 0.232 µg/mL; in test [4] it was 1.59 µg/mL. For the same substance, the results for the Absolute IC50, neutralizing RSV A2 (HEp-2 cells, indirect ELISA) in test [2] and in test [5] were 1.06 µg/mL and 3.04 µg/mL, respectively. Besides, the Absolute IC50, neutralizing RSV B9320 (HEp-2 cells, indirect ELISA) amounted to 1.07 µg/mL in test [3] and 0.481 µg/mL in test [6]. Further, in test [7], the kon is 1.2e+06 M⁻¹ s⁻¹. For the same substance, in test [8], the Kd was 0.0628 nM.
